We go through 50 sequences from the supplement of paper PMC9112550, “Optimization of the antimicrobial peptide Bac7 by deep mutational scanning” (BMC Biology, 2022).
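Also: peptides expressed intracellularly from a pBAD plasmid library in pooled LB shake-flask culture, induced with 0.3% L-arabinose, DNA abundance read by NGS, three biological replicates, DESeq2 with apeglm shrinkage.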

The data set relates to Escherichia coli TOP10. The data set can be described thus: shrunken log2 fold change of peptide-encoding DNA abundance (4.5 h post-induction vs induction); higher = less antimicrobial activity (less host growth inhibition). Particulars: time post-induction: 4.5 h; library: site-saturation at positions 5, 18, 19, 20.
RRIRDRPPRLPRPRPRPIRQPRP: the “shrunken log2 fold change” value was determined as 0.193.

In the case of RRIRSRPPRLPRPRPRPHEGPRP, the “shrunken log2 fold change” value was determined as 0.0242.

As to RRIRMRPPRLPRPRPRPIMLPRP, the “shrunken log2 fold change” value was -0.351.

In the case of RRIRFRPPRLPRPRPRPHGCPRP, the “shrunken log2 fold change” value is -0.064.

Regarding RRIRPRPPRLPRPRPRPRREPRP, the “shrunken log2 fold change” value is 0.187.

Turning to RRIRQRPPRLPRPRPRPRIIPRP, the “shrunken log2 fold change” value worked out at 0.00299.

For RRIRNRPPRLPRPRPRPGSVPRP, the “shrunken log2 fold change” value is -0.0436.

RRIRHRPPRLPRPRPRPACVPRP: the “shrunken log2 fold change” value is 0.0678.

With RRIRWRPPRLPRPRPRPNTSPRP, the “shrunken log2 fold change” value was -0.336.

Take RRIRLRPPRLPRPRPRPFYYPRP: the “shrunken log2 fold change” value was -0.666.

In the case of RRIRTRPPRLPRPRPRPLAAPRP, the “shrunken log2 fold change” value was 0.363.

For the sequence RRIRFRPPRLPRPRPRPTSHPRP, the “shrunken log2 fold change” value is -0.193.

With RRIRKRPPRLPRPRPRPLVMPRP, the “shrunken log2 fold change” value is 0.432.

As for RRIRARPPRLPRPRPRPLGNPRP, the “shrunken log2 fold change” value is 0.0331.

As to RRIRERPPRLPRPRPRPMYGPRP, the “shrunken log2 fold change” value was -0.739.

For RRIRQRPPRLPRPRPRPWGAPRP, the “shrunken log2 fold change” value came to 0.351.

Consider RRIRCRPPRLPRPRPRPIQWPRP, for which the “shrunken log2 fold change” value was -0.263.

In the case of RRIRCRPPRLPRPRPRPMFLPRP, the “shrunken log2 fold change” value is -0.847.

Consider RRIRNRPPRLPRPRPRPPYPPRP, for which the “shrunken log2 fold change” value was -0.0162.

RRIRCRPPRLPRPRPRPGGCPRP: the “shrunken log2 fold change” value is 0.153.

Regarding RRIRRRPPRLPRPRPRPTMAPRP, the “shrunken log2 fold change” value stood at 0.392.

Take RRIRSRPPRLPRPRPRPCRAPRP: the “shrunken log2 fold change” value is -0.0808.

Turning to RRIRPRPPRLPRPRPRPLVRPRP, the “shrunken log2 fold change” value amounted to 0.138.

For RRIRVRPPRLPRPRPRPSELPRP, the “shrunken log2 fold change” value was -0.157.

With RRIRGRPPRLPRPRPRPYDQPRP, the “shrunken log2 fold change” value amounted to 0.0878.

For the sequence RRIRQRPPRLPRPRPRPQMGPRP, the “shrunken log2 fold change” value was -0.553.

Regarding RRIRVRPPRLPRPRPRPCDPPRP, the “shrunken log2 fold change” value is -0.107.

RRIRDRPPRLPRPRPRPSTAPRP: the “shrunken log2 fold change” value worked out at 0.314.

Take RRIRLRPPRLPRPRPRPFPPPRP: the “shrunken log2 fold change” value is 0.00271.

With RRIRARPPRLPRPRPRPLWFPRP, the “shrunken log2 fold change” value came to 0.145.

For the sequence RRIRTRPPRLPRPRPRPDQPPRP, the “shrunken log2 fold change” value turned out to be 0.00486.

Turning to RRIRQRPPRLPRPRPRPCLQPRP, the “shrunken log2 fold change” value is -0.112.

For RRIRRRPPRLPRPRPRPHQRPRP, the “shrunken log2 fold change” value came out at 0.14.

Take RRIRRRPPRLPRPRPRPKTTPRP: the “shrunken log2 fold change” value was 0.0923.

For the sequence RRIRVRPPRLPRPRPRPGPPPRP, the “shrunken log2 fold change” value was found to be 0.564.

For RRIRWRPPRLPRPRPRPVFNPRP, the “shrunken log2 fold change” value was -0.259.

With RRIRMRPPRLPRPRPRPFLAPRP, the “shrunken log2 fold change” value was determined as 0.0298.

As to RRIRNRPPRLPRPRPRPMNTPRP, the “shrunken log2 fold change” value is -0.421.

In the case of RRIRTRPPRLPRPRPRPDVLPRP, the “shrunken log2 fold change” value is -0.208.

For the sequence RRIRVRPPRLPRPRPRPMIFPRP, the “shrunken log2 fold change” value was -0.213.

RRIRSRPPRLPRPRPRPTLSPRP: the “shrunken log2 fold change” value came out at 0.0887.

With RRIRWRPPRLPRPRPRPFGMPRP, the “shrunken log2 fold change” value was -0.283.

RRIRWRPPRLPRPRPRPGCVPRP: the “shrunken log2 fold change” value worked out at 0.607.

RRIRWRPPRLPRPRPRPGYYPRP: the “shrunken log2 fold change” value was -0.125.

Consider RRIRCRPPRLPRPRPRPWRTPRP, for which the “shrunken log2 fold change” value was -0.166.

With RRIRERPPRLPRPRPRPKVWPRP, the “shrunken log2 fold change” value was 0.332.

Consider RRIRDRPPRLPRPRPRPFQNPRP, for which the “shrunken log2 fold change” value amounted to 0.0838.

Take RRIRYRPPRLPRPRPRPDIYPRP: the “shrunken log2 fold change” value is 0.0393.

As to RRIRQRPPRLPRPRPRPNMLPRP, the “shrunken log2 fold change” value was -0.285.

For the sequence RRIRTRPPRLPRPRPRPWGDPRP, the “shrunken log2 fold change” value was -0.273.
